B1: CAMK2A (parent)
chain: ILLVGYPPFWDEDQHRLYKQIKAG
B2: SNAP91 (parent)
chain: FSTDAFSSPPQGASPVPESSLTAD

Variants of: B1
Assay: protein stability index of a GFP-peptide fusion (GPS, HEK-293T) (PSI 1-6); higher = more stable
Settings: c terminus: a fixed tail appended
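Further: lentivirally expressed fusions sorted by FACS into six bins by GFP to DsRed ratio, PSI derived from sequencing read proportions per bin multiplied by bin number.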

Protein stability index, by site and new letter:
Q20: T 1.62 | G 2.1 | N 1.83 | S 1.86 | E 2.18 | R 2 | V 3.11 | M 2.36 | L 2.6 | C 1.94
D13: P 2.24 | T 2.2 | F 3.02 | H 2.2 | K 3.5 | S 2.06 | E 1.76 | V 2.54 | C 2.36 | R 2.19 | M 3.08
W10: K 1.6 | R 1.52 | Y 2.05 | A 1.73 | F 2.27 | V 2.05 | N 1.71 | M 1.18 | L 2.54 | C 1.64 | T 2.34
I1: V 2.15 | G 2.21 | C 2.39 | R 2.54 | Q 1.82 | L 2.05 | N 2.03 | M 1.8 | K 2.23 | E 2.96 | Y 1.73 | S 2.33 | F 1.72 | D 2.1
H15: S 2.89 | P 2.6 | C 3.07 | K 1.24 | E 2.14 | Q 2.51 | W 2.08 | T 2.8 | G 2.21 | V 2.84
R16: I 1.62 | K 1.57 | T 1.29 | P 1.54 | G 1.64 | Y 3.24 | D 2.63 | V 2.67 | C 2.16 | W 1.62 | M 2.07 | F 2.2 | A 2.61 | N 2.27 | E 2.2 | L 2.27
P7: V 2.63 | G 2.31 | F 2.85 | Q 1.28 | A 1.47 | W 2.73 | L 2.89 | Y 4.41 | M 2.9 | H 3.75 | T 2.56 | D 1.39
Y18: H 1.89 | W 2.45 | A 2.09 | T 3.2 | F 1.4 | E 2.38 | S 1.95 | D 1.97 | K 2.31 | P 1.71 | R 2.45 | Q 1.51 | V 1.25 | N 2.05
L17: D 2.06 | C 1.19 | T 2.14 | W 2.09 | S 1.8 | Y 2.38 | M 2.47 | N 1.31 | R 2.12 | G 1.58 | I 2.1 | F 2.12 | E 2.09
F9: S 2.19 | G 1.67 | W 1.28 | A 1.65 | H 1.84 | K 2.52 | M 1.99 | P 2.13 | D 1.77 | I 1.62 | N 2.86 | Y 1.5 | Q 2.38 | C 2.58 | R 2.83
L3: V 2.35 | P 2.58 | I 2.58 | E 2.19 | Y 1.74 | A 1.65 | K 1.58 | T 1.97 | S 2.4 | G 1.88 | M 1.72 | F 2.68 | N 2.31 | Q 1.79 | H 2.24 | D 2.63 | W 2.4
G24: T 2.58 | K 1.7 | A 2.05 | H 2.08 | F 1.51 | Y 2.39 | P 1.65 | N 3.14 | I 2.71 | S 2.52 | D 1.87 | E 1.36 | M 1.58
G5: Y 1.49 | M 2.53 | A 2.27 | R 2.65 | H 2.32 | V 3.83 | F 3.4 | T 2.74 | Q 2.37 | N 1.99 | W 1.53 | E 3.74 | K 2.35
E12: L 1.95 | N 1.42 | Q 3.3 | M 3.3 | K 1.92 | T 1.96 | I 2.76 | A 1.49 | R 2.23 | W 2.32 | F 2.03
A23: I 2.82 | E 2.26 | D 1.98 | Y 2.73 | K 2.1 | M 2.06 | W 3.2 | R 2.21
Y6: I 5.07 | T 1.77 | K 1.39 | N 1.93 | Q 2.17 | E 2.1 | A 1.67 | V 1.45 | W 3.13 | F 2.73 | S 1.43 | C 1.62 | M 2.36 | L 1.61
P8: M 1.89 | V 2.96 | T 1.87 | Y 1.98 | C 4.72 | R 3.38 | A 1.83
K19: S 2.63 | F 2.66 | I 2.67 | E 1.87 | N 3.09 | R 1.36 | Y 3.14 | G 3.31 | A 1.65 | W 2.65 | V 2.9 | P 1.73 | M 3.5 | H 1.38
L2: N 1.52 | K 1.63 | P 1.86 | G 2.4 | E 2.04 | I 2.57 | M 3.1 | Q 1.42 | H 1.72 | T 1.86 | S 1.75 | C 2.11
Q14: R 2.78 | S 2.59 | N 2.33 | E 2.01 | P 3.6 | I 2.05 | W 1.57 | F 2.52 | K 1.68 | Y 2.54 | G 3.47 | H 2.67 | L 2.35 | D 2.32
I21: Y 1.84 | L 2.31 | D 1.99 | G 1.54 | T 1.73 | M 1.72 | H 1.47 | K 1.65 | W 2.4 | F 3.06 | N 2.19 | Q 2.28 | A 1.79
D11: T 1.85 | R 1.21 | E 3.38 | A 2.34 | L 2.39 | C 2.48 | M 2.52 | I 3.45 | F 3.09
V4: S 1.65 | R 1.47 | Q 2.33 | K 2.23 | E 1.53 | I 3.1 | A 1.07 | C 1.64 | P 1.73 | N 1.92 | Y 2.13 | F 2.76 | T 2.31 | L 2.66
K22: Q 3.46 | I 2.55 | C 2.31 | M 2.6 | G 1.63 | Y 2.43 | E 1.96 | W 2.2 | N 2.6 | P 2.74 | A 2.87 | T 2.52

Variants of: B2
Assay: as above
Settings: c terminus: a fixed tail appended

Protein stability index: each site, then its substitutions
A23: G 3.09 | T 3.35 | N 3.5 | K 3.49 | C 2.23 | I 3.08 | S 2.94 | M 2.97 | V 2.96 | W 2.65 | P 2.8 | D 3.36 | H 2.85 | R 2.96 | F 3.01 | Q 3.91 | E 3.35 | L 3.23
T22: Y 3.21
D24: H 2.42 | Y 2.25 | I 2.92 | Q 3.01 | G 2.75 | R 3.49 | C 2.83 | W 1.87 | L 3.07 | V 2.18 | A 3.03 | M 3.19 | T 2.89 | E 3.02 | K 3.18 | S 2.78 | F 2.12 | N 2.62
